Columns and labels:
Experiment in all cases: cell-based or functional assay
BrSK1(h) (human) = target: T1, BrSK1(h) (human) (UniProt Q8TDC3)
T1 sequence (looked up): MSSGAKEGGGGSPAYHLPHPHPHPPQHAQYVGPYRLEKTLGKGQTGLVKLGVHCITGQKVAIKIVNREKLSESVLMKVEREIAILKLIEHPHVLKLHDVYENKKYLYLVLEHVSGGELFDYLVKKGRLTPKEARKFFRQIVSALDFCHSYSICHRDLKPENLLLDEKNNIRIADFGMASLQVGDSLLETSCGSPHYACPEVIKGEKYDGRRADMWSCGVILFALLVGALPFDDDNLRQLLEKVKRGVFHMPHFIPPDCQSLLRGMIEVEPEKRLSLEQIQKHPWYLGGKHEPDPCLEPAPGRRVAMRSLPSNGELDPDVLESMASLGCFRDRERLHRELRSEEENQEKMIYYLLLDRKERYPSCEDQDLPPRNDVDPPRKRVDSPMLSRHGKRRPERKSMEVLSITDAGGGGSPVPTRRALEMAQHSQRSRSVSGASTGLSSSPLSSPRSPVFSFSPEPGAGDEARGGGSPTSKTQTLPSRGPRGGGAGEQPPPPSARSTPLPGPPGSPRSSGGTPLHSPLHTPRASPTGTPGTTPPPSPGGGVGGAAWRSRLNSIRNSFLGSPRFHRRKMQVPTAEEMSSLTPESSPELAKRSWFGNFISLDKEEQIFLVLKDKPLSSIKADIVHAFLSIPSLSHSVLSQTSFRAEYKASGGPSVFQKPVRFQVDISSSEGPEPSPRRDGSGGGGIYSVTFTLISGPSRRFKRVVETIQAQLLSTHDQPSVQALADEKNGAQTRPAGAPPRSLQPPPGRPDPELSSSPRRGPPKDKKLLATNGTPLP

CaMKIIγ(h) (human) = CaMKIIγ(h) (human) (UniProt Q13555)
DMPK(h) (human) = DMPK(h) (human) (UniProt Q09013)
EphA4(h) (human) = EphA4(h) (human) (UniProt P54764)
GCK(h) (human) = target: T2, GCK(h) (human) (UniProt Q12851)
T2 sequence (looked up): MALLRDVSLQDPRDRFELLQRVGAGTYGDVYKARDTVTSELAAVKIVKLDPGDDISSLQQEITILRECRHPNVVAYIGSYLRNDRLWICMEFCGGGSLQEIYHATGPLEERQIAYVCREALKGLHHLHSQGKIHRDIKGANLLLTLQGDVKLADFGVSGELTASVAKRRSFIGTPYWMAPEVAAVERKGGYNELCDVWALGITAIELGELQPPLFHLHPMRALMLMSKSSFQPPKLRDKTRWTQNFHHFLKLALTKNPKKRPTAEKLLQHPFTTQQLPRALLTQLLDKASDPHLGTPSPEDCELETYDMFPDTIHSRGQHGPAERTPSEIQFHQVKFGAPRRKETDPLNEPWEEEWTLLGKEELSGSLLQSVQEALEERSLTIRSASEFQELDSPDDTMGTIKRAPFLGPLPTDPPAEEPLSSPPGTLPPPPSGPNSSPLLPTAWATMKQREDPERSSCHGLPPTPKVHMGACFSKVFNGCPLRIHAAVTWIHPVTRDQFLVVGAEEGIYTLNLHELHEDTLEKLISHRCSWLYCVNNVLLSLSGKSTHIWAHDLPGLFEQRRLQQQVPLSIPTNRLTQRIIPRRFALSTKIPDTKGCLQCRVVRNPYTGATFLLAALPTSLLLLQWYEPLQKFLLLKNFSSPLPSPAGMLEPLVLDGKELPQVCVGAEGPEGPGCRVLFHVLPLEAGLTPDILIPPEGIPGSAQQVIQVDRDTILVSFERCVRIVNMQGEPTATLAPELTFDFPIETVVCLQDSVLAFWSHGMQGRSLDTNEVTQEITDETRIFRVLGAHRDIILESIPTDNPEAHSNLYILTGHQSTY

GRK7(h) (human) = target: T3, GRK7(h) (human) (UniProt Q8WTQ7)
T3 sequence (looked up): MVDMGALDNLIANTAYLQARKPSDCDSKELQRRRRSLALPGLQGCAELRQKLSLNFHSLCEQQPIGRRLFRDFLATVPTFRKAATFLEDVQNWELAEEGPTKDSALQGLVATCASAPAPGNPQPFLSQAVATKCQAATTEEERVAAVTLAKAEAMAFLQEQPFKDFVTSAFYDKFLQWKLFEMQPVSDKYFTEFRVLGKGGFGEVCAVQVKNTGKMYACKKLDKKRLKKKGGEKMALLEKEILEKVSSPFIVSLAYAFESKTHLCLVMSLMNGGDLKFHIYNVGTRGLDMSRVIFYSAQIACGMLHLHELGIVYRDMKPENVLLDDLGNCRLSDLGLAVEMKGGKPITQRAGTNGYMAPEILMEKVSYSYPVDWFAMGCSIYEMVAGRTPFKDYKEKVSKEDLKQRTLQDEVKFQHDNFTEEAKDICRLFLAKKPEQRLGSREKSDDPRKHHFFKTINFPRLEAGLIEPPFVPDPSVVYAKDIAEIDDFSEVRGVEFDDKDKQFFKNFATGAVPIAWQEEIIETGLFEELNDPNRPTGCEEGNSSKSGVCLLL

JNK3(h) (human) = JNK3(h) (human) (UniProt P53779)
LOK(h) (human) = LOK(h) (human) (UniProt O94804)
MSSK1(h) (human) = MSSK1(h) (human) (UniProt Q9UPE1)
MuSK(h) (human) = MuSK(h) (human) (UniProt O15146)
PKBβ(h) (human) = PKBβ(h) (human) (UniProt P31751)
PTK5(h) (human) = PTK5(h) (human) (UniProt P42685)
SIK(h) (human) = SIK(h) (human) (UniProt P57059)
STK33(h) (human) = STK33(h) (human) (UniProt Q9BYT3)
Syk(h) (human) = Syk(h) (human) (UniProt P43405)
ZIPK(h) (human) = ZIPK(h) (human) (UniProt O43293)
cKit(h) (human) = cKit(h) (human) (UniProt P10721)
Sequence of cKit(h) (human) (P10721 544-976): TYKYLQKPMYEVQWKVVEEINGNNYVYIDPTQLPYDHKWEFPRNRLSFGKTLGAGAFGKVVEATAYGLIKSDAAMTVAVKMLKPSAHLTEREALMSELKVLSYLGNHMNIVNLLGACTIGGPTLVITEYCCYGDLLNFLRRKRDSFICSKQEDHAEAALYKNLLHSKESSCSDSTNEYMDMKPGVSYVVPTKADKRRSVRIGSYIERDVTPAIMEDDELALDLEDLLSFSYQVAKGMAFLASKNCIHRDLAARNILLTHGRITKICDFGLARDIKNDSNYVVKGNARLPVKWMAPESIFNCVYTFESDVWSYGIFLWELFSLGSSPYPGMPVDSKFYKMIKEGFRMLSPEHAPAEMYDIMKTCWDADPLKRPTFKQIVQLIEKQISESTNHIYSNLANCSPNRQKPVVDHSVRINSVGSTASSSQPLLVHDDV

Sequence of ZIPK(h) (human) (O43293 whole entry): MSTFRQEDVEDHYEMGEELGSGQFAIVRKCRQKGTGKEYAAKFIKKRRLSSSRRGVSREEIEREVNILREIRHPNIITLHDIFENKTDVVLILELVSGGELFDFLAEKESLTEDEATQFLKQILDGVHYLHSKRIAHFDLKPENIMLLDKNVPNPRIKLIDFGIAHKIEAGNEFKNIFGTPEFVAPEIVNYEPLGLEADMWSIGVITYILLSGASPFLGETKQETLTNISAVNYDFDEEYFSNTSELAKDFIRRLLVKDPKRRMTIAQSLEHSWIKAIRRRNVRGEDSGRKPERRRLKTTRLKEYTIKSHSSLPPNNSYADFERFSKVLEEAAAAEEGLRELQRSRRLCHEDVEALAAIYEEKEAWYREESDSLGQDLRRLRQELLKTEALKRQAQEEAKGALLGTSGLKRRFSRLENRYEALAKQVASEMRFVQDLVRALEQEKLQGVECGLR
Sequence of MuSK(h) (human) (O15146 517-869 limits assumed): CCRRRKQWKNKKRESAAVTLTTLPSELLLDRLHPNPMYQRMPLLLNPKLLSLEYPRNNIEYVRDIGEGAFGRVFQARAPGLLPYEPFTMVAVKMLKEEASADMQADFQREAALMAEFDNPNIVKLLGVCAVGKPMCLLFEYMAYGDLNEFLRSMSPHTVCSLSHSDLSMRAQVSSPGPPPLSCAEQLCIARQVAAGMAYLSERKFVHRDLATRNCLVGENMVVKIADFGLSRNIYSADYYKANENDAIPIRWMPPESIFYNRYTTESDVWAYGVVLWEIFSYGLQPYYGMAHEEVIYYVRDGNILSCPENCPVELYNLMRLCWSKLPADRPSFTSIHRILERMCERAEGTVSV
Sequence of MSSK1(h) (human) (Q9UPE1 whole entry): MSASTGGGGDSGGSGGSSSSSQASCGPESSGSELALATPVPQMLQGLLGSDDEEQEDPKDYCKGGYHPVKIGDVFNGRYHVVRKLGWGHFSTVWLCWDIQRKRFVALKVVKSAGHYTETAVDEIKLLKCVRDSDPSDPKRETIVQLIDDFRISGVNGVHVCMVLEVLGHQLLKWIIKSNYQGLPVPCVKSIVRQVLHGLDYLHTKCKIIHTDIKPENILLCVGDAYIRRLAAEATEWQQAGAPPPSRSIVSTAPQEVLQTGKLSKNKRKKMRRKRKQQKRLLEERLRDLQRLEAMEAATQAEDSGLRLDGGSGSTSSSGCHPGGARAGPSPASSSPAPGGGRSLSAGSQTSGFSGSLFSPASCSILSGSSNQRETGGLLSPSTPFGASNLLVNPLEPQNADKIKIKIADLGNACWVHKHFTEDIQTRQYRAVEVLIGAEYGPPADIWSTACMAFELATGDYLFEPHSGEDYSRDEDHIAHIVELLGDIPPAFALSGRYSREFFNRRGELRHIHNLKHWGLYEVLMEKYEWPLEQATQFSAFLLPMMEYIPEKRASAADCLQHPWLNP
Sequence of LOK(h) (human) (O94804 1-348 limits assumed): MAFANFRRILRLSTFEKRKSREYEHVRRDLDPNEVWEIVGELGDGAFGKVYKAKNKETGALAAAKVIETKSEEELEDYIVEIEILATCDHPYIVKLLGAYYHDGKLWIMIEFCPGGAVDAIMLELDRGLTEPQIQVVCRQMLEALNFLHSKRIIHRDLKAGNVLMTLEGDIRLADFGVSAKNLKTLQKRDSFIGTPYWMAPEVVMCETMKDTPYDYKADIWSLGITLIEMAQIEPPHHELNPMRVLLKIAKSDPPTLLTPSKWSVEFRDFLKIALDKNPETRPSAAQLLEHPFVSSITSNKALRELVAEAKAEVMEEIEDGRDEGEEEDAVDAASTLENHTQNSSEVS
Sequence of PTK5(h) (human) (P42685 whole entry): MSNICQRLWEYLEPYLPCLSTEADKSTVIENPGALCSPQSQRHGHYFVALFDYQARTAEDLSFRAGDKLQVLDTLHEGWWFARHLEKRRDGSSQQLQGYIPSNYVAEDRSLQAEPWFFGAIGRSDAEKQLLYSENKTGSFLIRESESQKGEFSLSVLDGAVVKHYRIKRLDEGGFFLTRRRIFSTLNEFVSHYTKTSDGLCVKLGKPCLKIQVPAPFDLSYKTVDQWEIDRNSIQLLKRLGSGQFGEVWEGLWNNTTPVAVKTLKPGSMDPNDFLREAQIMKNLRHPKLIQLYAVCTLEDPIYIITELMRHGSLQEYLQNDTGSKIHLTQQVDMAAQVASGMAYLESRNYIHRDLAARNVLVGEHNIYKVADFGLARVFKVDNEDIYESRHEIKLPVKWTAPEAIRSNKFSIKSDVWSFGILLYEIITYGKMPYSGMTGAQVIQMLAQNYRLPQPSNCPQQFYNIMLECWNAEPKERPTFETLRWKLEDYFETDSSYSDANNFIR
Sequence of SIK(h) (human) (P57059 whole entry): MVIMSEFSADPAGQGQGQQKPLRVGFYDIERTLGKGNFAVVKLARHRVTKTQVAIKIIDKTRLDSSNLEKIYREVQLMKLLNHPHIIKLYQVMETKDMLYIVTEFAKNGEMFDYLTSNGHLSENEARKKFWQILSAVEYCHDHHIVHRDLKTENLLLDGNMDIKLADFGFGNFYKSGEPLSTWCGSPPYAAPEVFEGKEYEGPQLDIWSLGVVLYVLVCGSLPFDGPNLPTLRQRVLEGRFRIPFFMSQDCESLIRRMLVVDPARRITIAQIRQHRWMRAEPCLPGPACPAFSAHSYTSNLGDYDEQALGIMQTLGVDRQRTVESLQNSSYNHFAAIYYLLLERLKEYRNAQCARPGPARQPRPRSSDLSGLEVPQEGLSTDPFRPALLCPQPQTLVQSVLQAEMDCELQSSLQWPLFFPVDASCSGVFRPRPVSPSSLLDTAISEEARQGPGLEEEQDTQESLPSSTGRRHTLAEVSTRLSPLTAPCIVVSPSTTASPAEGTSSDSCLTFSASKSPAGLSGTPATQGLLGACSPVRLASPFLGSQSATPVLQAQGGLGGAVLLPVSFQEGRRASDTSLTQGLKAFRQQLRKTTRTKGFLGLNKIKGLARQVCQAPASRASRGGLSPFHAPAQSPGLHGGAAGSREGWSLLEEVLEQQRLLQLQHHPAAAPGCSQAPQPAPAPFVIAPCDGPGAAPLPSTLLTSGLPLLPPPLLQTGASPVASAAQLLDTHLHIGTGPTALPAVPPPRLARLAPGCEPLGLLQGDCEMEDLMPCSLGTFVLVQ
Sequence of JNK3(h) (human) (P53779 whole entry): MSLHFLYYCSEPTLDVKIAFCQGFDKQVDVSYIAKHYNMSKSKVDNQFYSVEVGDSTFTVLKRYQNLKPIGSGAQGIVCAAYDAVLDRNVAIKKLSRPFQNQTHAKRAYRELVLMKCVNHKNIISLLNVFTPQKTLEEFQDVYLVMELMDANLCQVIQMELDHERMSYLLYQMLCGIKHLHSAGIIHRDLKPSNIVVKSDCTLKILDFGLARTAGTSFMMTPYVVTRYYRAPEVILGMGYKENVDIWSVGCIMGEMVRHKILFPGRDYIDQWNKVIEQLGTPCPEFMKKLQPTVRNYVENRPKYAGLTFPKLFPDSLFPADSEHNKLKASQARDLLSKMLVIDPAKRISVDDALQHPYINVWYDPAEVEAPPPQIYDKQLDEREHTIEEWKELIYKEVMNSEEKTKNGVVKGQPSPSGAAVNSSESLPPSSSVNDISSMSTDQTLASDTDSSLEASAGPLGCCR
Sequence of EphA4(h) (human) (P54764 570-986 limits assumed): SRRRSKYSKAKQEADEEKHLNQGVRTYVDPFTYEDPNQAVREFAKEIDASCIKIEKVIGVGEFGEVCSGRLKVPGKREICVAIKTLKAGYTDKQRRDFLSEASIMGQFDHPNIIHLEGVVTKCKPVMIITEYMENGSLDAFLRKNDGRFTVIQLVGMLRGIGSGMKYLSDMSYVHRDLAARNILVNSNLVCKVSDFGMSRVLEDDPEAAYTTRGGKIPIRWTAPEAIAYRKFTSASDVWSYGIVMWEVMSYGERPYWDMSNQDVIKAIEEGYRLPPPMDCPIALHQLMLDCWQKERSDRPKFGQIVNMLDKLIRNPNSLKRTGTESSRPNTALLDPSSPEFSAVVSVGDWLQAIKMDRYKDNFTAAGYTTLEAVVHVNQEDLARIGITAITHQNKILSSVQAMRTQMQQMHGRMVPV
Sequence of DMPK(h) (human) (Q09013 whole entry): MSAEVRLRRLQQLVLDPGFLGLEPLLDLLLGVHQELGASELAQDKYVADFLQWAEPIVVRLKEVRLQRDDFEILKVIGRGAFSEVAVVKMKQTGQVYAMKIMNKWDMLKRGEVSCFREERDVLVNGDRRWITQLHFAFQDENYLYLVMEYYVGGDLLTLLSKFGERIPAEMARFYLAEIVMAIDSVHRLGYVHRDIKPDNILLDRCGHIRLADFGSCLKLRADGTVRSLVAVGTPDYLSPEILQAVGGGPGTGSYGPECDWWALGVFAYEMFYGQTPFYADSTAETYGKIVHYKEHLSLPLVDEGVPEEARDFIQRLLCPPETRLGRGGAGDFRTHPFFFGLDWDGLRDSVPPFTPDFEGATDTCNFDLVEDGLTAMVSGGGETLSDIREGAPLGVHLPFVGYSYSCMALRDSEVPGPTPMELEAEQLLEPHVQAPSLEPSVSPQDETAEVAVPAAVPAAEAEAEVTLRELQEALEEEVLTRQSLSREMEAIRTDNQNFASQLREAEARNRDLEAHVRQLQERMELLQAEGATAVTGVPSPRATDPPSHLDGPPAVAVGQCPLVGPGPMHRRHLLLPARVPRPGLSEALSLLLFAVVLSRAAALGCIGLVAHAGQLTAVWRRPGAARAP

MMI-0500 (peptide)
% activity, 100 µM (BrSK1(h) (human)): 72%
% activity, 100 µM (CaMKIIγ(h) (human)): 3%
% activity, 100 µM (DMPK(h) (human)): 12%
% activity, 100 µM (EphA4(h) (human)): 48%
% activity, 100 µM (GCK(h) (human)): 30%
% activity, 100 µM (GRK7(h) (human)): 93%
% activity, 100 µM (JNK3(h) (human)): 171%
% activity, 100 µM (LOK(h) (human)): 7%
% activity, 100 µM (MSSK1(h) (human)): 22%
% activity, 100 µM (MuSK(h) (human)): 27%
% activity, 100 µM (PKBβ(h) (human)): 21%
% activity, 100 µM (PTK5(h) (human)): 96%
% activity, 100 µM (SIK(h) (human)): 40%
% activity, 100 µM (STK33(h) (human)): 16%
% activity, 100 µM (Syk(h) (human)): 5%
% activity, 100 µM (ZIPK(h) (human)): 1%
% activity, 100 µM (cKit(h) (human)): 45%

Reference: US20140072613A1, “Compositions and Methods for Treating Cutaneous Scarring” (priority 2012, published 2014)
